Data as given in paper PMC2288870.

How the values were obtained:
[1] = target: 50-kD chymotryptic fragment of thrombospondin (human); assay: non-reducing SDS-PAGE
[2] = target: 70-kD chymotryptic fragment of thrombospondin (human); assay: non-reducing SDS-PAGE

## 50-kD chymotryptic fragment of thrombospondin (domain or fragment)
[1]
  stoichiometry N: 3

## 70-kD chymotryptic fragment of thrombospondin (domain or fragment)
[2]
  stoichiometry N: 3
